Consider three molecules from patent publication US20050069887A1, “Dna synthesis promoters dna polymerase-associated factors and utilization thereof” (priority 2001, published 2005).

Data set [1] concerns M13 single-stranded DNA. To be noted: Takagi et al. 1997; cited from earlier work.
For data set [2], the system named is pMol 21. To be noted: PCR product fidelity, rpsL / pMol 21 method; cited from earlier work.
Data set [3] deals with T1, KOD DNA polymerase (DNA polymerase derived from Thermococcus kodakaraensis KOD1) (Thermococcus kodakaraensis KOD1, UniProt P77933 1-1671).
T1 sequence: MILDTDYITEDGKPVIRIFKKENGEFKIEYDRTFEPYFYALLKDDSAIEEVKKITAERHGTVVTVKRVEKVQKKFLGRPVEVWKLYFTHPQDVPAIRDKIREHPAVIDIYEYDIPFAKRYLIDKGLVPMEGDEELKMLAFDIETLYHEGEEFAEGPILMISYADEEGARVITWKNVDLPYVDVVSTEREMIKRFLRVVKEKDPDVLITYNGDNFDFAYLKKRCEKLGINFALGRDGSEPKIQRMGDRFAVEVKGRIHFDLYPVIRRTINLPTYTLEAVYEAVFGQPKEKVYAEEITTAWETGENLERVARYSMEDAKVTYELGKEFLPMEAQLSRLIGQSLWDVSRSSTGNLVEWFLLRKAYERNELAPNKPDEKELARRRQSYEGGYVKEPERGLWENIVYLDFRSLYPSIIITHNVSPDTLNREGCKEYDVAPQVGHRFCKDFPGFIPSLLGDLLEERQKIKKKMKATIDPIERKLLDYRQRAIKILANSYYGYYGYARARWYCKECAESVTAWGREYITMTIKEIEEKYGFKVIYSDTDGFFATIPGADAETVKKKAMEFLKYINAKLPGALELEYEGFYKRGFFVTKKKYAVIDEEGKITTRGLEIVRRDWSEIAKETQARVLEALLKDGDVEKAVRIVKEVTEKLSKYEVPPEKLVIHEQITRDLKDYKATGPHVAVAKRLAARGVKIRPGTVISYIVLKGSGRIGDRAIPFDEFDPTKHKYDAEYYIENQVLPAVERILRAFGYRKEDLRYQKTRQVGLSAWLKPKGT
The data set can be described thus: cell-based or functional assay.

Data set [4] concerns the molecule itself. The data set can be described thus: gel filtration HPLC (TSKgel G3000SW), molecular weight against standard samples. Background: In gel filtration, larger molecules generally elute earlier.

As to “Taq polymerase: DNA polymerase derived from Thermus aquaticus”, the DNA elongation rate in data set [1] is given as 61.0 bases/second. Further, the mutation rate in data set [2] is reported as at least 4%.

B1: Pfu polymerase: DNA polymerase derived from Pyrococcus furiosus (protein, UniProt P61875 1-775, looked up)
DNA polymerase: MILDVDYITEEGKPVIRLFKKENGKFKIEHDRTFRPYIYALLRDDSKIEEVKKITGERHGKIVRIVDVEKVEKKFLGKPITVWKLYLEHPQDVPTIREKVREHPAVVDIFEYDIPFAKRYLIDKGLIPMEGEEELKILAFDIETLYHEGEEFGKGPIIMISYADENEAKVITWKNIDLPYVEVVSSEREMIKRFLRIIREKDPDIIVTYNGDSFDFPYLAKRAEKLGIKLTIGRDGSEPKMQRIGDMTAVEVKGRIHFDLYHVITRTINLPTYTLEAVYEAIFGKPKEKVYADEIAKAWESGENLERVAKYSMEDAKATYELGKEFLPMEIQLSRLVGQPLWDVSRSSTGNLVEWFLLRKAYERNEVAPNKPSEEEYQRRLRESYTGGFVKEPEKGLWENIVYLDFRALYPSIIITHNVSPDTLNLEGCKNYDIAPQVGHKFCKDIPGFIPSLLGHLLEERQKIKTKMKETQDPIEKILLDYRQKAIKLLANSFYGYYGYAKARWYCKECAESVTAWGRKYIELVWKELEEKFGFKVLYIDTDGLYATIPGGESEEIKKKALEFVKYINSKLPGLLELEYEGFYKRGFFVTKKRYAVIDEEGKVITRGLEIVRRDWSEIAKETQARVLETILKHGDVEEAVRIVKEVIQKLANYEIPPEKLAIYEQITRPLHEYKAIGPHVAVAKKLAAKGVKIKPGMVIGYIVLRGDGPISNRAILAEEYDPKKHKYDAEYYIENQVLPAVLRILEGFGYRKEDLRYQKTRQVGLTSWLNIKKS
For the molecule B1, the DNA elongation rate in data set [1] is 24.8 bases/second.

B2: KOD-PCNA (proliferating cell nuclear antigen) derived from Thermococcus kodakaraensis KOD1 (other)
chain: PFEVVFDGAKEFADLIATASNLIDEAAFKFTEEGISMRAMDPSRVVLIDLNLPESIFSKYEVEEPETIGINMDQFKKILKRGKAKDTLILRKGDENFLEITFEGTAKRTFRLPLIDVEELELELPELPFTAKVVLLGEVLKEGIKDASLVSDAIKFIAKENEFTMKAEGETNEVEIRLTLEDEGLLDLEVEEETKSAYGISYLSDMVKGIGKADEVILRFGNEMPLQMEYMIRDEGRLTFLLAPRVEE
notes: also called KOD-PCNA protein; KOD-PCNA complex
Regarding B2, the “DNA elongation rate relative to the sample with no PCNA added” value in data set [3] was about 3 times. The binding result in data set [4] is recorded as “binds”.
